Patent US20040213794

System: myelin basic protein (MBP)

Row | Substance | in gel kinase assay (MBP as substrate)
1 | Mst1 (mammalian sterile 20-like kinase-1), full length 61 kD form, endogenous in neonatal rat cardiac myocytes | activation of the full length (61 kD) and cleaved (34 kD) forms of Mst1 after 6 hr Doxo stimulation of cardiac myocytes
2 | Mst1, cleaved 34 kD form (amino-terminal half containing the N-terminal kinase domain), in neonatal rat cardiac myocytes | activation of the full length (61 kD) and cleaved (34 kD) forms of Mst1 after 6 hr Doxo stimulation of cardiac myocytes
